Measured values as given in the supplement of paper PMC11136658.

Test system: peptide library, one residue held at a place counted from the Y acceptor
Assay: relative phosphorylation of the sub-library (ratio to the mean residue at this position); higher = residue favoured
Method in brief: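 Within 384-well plates, purified recombinant kinases phosphorylated biotinylated Tyr-centred peptide library mixtures over 90 min using 50 μM ATP spiked with γ-32P-ATP; each mixture fixed one residue at one position from −5 to +5. Streptavidin membrane capture, rinsing, phosphorimaging and ImageQuant gave the intensities. These were normalized per position to the sum of the 18 randomized residues (16 for the Ser/Thr-free library) and multiplied by that number.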

Sequence of BLK, construct: Full length, human (P51451 whole entry, looked up): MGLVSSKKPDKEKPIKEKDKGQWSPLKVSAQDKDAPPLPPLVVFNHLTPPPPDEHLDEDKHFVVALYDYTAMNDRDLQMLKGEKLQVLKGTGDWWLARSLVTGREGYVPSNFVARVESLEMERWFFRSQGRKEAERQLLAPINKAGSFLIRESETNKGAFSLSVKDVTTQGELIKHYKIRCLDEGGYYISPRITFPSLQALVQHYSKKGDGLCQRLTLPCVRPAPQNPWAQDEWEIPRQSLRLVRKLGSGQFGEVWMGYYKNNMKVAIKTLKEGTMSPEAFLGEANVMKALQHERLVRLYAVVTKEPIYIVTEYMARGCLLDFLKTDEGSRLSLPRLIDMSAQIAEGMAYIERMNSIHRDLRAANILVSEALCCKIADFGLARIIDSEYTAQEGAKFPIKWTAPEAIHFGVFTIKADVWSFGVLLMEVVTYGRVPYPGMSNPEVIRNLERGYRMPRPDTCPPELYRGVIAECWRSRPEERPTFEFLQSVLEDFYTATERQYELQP
Sequence of MATK, construct: Full length, human (P42679 whole entry, looked up): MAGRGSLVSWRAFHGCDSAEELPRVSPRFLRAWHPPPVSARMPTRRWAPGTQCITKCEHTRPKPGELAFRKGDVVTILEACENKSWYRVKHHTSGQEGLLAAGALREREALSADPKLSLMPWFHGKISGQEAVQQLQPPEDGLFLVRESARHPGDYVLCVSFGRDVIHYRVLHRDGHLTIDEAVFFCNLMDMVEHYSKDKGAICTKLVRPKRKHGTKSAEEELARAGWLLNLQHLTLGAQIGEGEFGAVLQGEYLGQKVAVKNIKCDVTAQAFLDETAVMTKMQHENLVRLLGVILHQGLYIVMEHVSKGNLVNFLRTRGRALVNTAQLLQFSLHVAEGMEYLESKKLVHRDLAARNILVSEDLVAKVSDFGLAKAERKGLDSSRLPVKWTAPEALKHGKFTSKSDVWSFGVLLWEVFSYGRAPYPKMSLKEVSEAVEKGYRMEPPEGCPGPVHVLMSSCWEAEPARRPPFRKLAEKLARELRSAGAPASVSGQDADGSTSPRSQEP
Sequence of EPHB1, construct: aa613-881, human (P54762 613-881, looked up): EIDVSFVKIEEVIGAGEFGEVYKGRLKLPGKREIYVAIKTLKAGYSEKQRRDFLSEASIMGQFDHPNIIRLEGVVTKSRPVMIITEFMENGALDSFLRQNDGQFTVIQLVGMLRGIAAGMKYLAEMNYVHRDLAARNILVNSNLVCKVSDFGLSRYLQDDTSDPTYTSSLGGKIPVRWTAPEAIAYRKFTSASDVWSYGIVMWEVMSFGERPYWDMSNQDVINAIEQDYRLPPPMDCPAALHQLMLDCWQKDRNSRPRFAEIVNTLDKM

MATK, construct: Full length, human (from UniProt P42679)
relative phosphorylation
Details | at +1 | at +2 | at +3 | at +4 | at +5 | at -1 | at -2 | at -3 | at -4 | at -5
A fixed | 1.54 | 0.899 | 0.728 | 0.85 | 0.892 | 0.545 | 0.986 | 0.875 | 1.17 | 0.971
D fixed | 0.52 | 0.698 | 0.362 | 0.806 | 0.935 | 1.04 | 0.725 | 1.43 | 1.29 | 1.34
E fixed | 1.01 | 0.877 | 0.364 | 1.15 | 1.09 | 2.07 | 1.36 | 2.47 | 1.78 | 1.26
F fixed | 0.735 | 1.12 | 1.38 | 0.839 | 1.18 | 0.512 | 0.538 | 0.854 | 0.872 | 0.935
G fixed | 0.643 | 0.46 | 0.667 | 0.962 | 0.845 | 0.407 | 1.23 | 0.95 | 1.39 | 1.18
H fixed | 1.61 | 0.658 | 1.15 | 1.49 | 1 | 1.71 | 1.09 | 1.08 | 0.975 | 1.01
I fixed | 0.964 | 0.972 | 1.95 | 0.803 | 0.862 | 2.32 | 0.822 | 0.599 | 0.724 | 0.922
K fixed | 0.833 | 0.932 | 1.12 | 1.19 | 0.979 | 0.703 | 0.911 | 0.76 | 0.982 | 0.986
L fixed | 0.776 | 1.24 | 1.51 | 0.876 | 0.881 | 0.905 | 0.737 | 0.683 | 0.756 | 0.763
M fixed | 1.22 | 1.32 | 0.915 | 0.998 | 0.983 | 0.954 | 0.677 | 0.736 | 0.749 | 0.845
N fixed | 0.804 | 1.3 | 0.491 | 1.14 | 1.09 | 0.988 | 1.03 | 1.23 | 0.879 | 1.1
P fixed | 0.521 | 0.763 | 1.08 | 1.15 | 0.952 | 0.536 | 1.15 | 1.07 | 1.1 | 1.06
Q fixed | 1.13 | 0.885 | 0.749 | 0.856 | 0.991 | 1.02 | 1 | 0.8 | 1.1 | 1.09
R fixed | 1.04 | 1.42 | 1.19 | 1.4 | 1.24 | 0.706 | 1 | 0.967 | 1.04 | 1.09
S fixed | 1.1 | 0.845 | 0.674 | 0.789 | 1.11 | 0.423 | 1.77 | 1.06 | 0.803 | 0.738
T fixed | 0.927 | 0.839 | 0.842 | 0.772 | 1.01 | 0.818 | 1.41 | 0.868 | 0.713 | 0.923
V fixed | 1.24 | 0.848 | 1.46 | 0.665 | 0.832 | 1.72 | 0.887 | 0.696 | 0.668 | 0.724
W fixed | 1.38 | 1.93 | 1.37 | 1.27 | 1.14 | 0.627 | 0.671 | 0.869 | 1 | 1.06
pThr fixed | 1.28 | 1.53 | 0.438 | 0.544 | 0.806 | 0.806 | 1.4 | 2.14 | 1.28 | 0.879
pTyr fixed | 3.3 | 3.6 | 0.787 | 1.2 | 0.998 | 9.49 | 2.64 | 4.79 | 3 | 1.8

EPHB1, construct: aa613-881, human (from UniProt P54762)
relative phosphorylation
Details | at +1 | at +2 | at +3 | at +4 | at +5 | at -1 | at -2 | at -3 | at -4 | at -5
A fixed | 1.86 | 0.98 | 0.818 | 0.902 | 1.1 | 0.664 | 1.16 | 0.857 | 0.999 | 0.906
D fixed | 0.907 | 1.01 | 0.511 | 1.08 | 1.13 | 2.22 | 1.09 | 1.22 | 1.23 | 1.15
E fixed | 2.33 | 1.18 | 0.427 | 1.04 | 1.06 | 1.2 | 1.27 | 1.34 | 1.26 | 1.01
F fixed | 0.676 | 1.14 | 1.37 | 1.06 | 1.13 | 1.19 | 0.677 | 1.31 | 1.19 | 1.07
G fixed | 0.571 | 0.414 | 0.575 | 1.03 | 1.05 | 0.223 | 1.23 | 0.898 | 1.15 | 0.979
H fixed | 0.566 | 0.769 | 1.39 | 1.18 | 0.938 | 0.762 | 0.888 | 1.05 | 0.872 | 0.934
I fixed | 1.67 | 1.36 | 2.18 | 0.773 | 0.815 | 2.09 | 0.872 | 0.944 | 0.907 | 0.956
K fixed | 0.212 | 0.585 | 0.29 | 0.744 | 0.784 | 0.264 | 0.946 | 0.631 | 0.931 | 1.05
L fixed | 0.823 | 1.04 | 1.37 | 0.828 | 1.08 | 1.95 | 0.914 | 1.02 | 1.07 | 1.11
M fixed | 1.48 | 0.935 | 1.19 | 1.07 | 1.01 | 0.95 | 0.689 | 0.874 | 0.872 | 0.926
N fixed | 0.383 | 0.951 | 0.731 | 0.806 | 0.856 | 1.81 | 1.05 | 1.03 | 0.844 | 1.13
P fixed | 0.195 | 0.858 | 0.899 | 1.29 | 1.49 | 0.436 | 1.33 | 1.2 | 1.21 | 0.947
Q fixed | 1.22 | 0.982 | 0.849 | 1.07 | 0.94 | 0.423 | 1.13 | 0.835 | 1.19 | 1.13
R fixed | 0.252 | 0.768 | 0.419 | 0.835 | 0.782 | 0.29 | 0.905 | 0.672 | 0.9 | 1.01
S fixed | 0.934 | 0.981 | 0.691 | 0.94 | 0.972 | 0.519 | 1.3 | 0.923 | 0.722 | 0.841
T fixed | 0.868 | 1.02 | 0.848 | 0.939 | 0.938 | 0.968 | 0.917 | 0.844 | 0.667 | 0.757
V fixed | 1.83 | 1.56 | 1.95 | 0.911 | 0.876 | 1.24 | 0.912 | 0.928 | 0.854 | 0.949
W fixed | 1.22 | 1.45 | 1.49 | 1.5 | 1.05 | 0.811 | 0.714 | 1.42 | 1.14 | 1.15
pThr fixed | 1.9 | 1.95 | 0.439 | 1.03 | 0.655 | 1.58 | 0.851 | 0.856 | 0.945 | 1.02
pTyr fixed | 1.56 | 3.38 | 0.718 | 1.1 | 0.883 | 1.69 | 0.936 | 1.13 | 1.12 | 1.25

BLK, construct: Full length, human (from UniProt P51451)
relative phosphorylation
Details | at +1 | at +2 | at +3 | at +4 | at +5 | at -1 | at -2 | at -3 | at -4 | at -5
A fixed | 2.14 | 1.24 | 0.602 | 0.865 | 0.935 | 0.611 | 1.17 | 0.881 | 1.14 | 1.08
D fixed | 1.33 | 0.554 | 0.236 | 0.56 | 0.668 | 0.87 | 1.64 | 1.7 | 1.68 | 1.46
E fixed | 2 | 1.17 | 0.228 | 0.643 | 0.62 | 1.58 | 2.03 | 2.08 | 1.68 | 1.35
F fixed | 0.463 | 0.799 | 1.9 | 1.14 | 1.02 | 0.648 | 0.466 | 0.996 | 0.777 | 0.846
G fixed | 3.16 | 0.79 | 0.772 | 1.28 | 1.12 | 0.46 | 1.41 | 1.09 | 1.34 | 1.27
H fixed | 0.603 | 0.666 | 0.822 | 1.2 | 1.08 | 0.592 | 0.778 | 1.05 | 0.879 | 0.978
I fixed | 0.558 | 0.865 | 2.22 | 0.721 | 0.713 | 3.23 | 0.629 | 0.607 | 0.833 | 0.764
K fixed | 0.198 | 0.856 | 0.598 | 1.35 | 1.39 | 0.303 | 0.597 | 0.47 | 0.732 | 0.941
L fixed | 0.458 | 0.767 | 2.47 | 1.13 | 0.834 | 1.8 | 0.682 | 0.73 | 0.805 | 0.721
M fixed | 1.11 | 0.83 | 0.927 | 1.16 | 0.938 | 0.995 | 0.605 | 0.853 | 0.913 | 0.816
N fixed | 0.538 | 0.874 | 0.448 | 0.796 | 0.93 | 0.421 | 1.3 | 1.37 | 0.96 | 1.09
P fixed | 0.222 | 1.29 | 0.565 | 0.834 | 1.18 | 0.706 | 1.35 | 0.917 | 1.2 | 1.23
Q fixed | 1.16 | 0.957 | 0.414 | 0.998 | 0.87 | 0.589 | 1.15 | 0.926 | 1.09 | 1.12
R fixed | 0.335 | 1.26 | 1.3 | 1.71 | 1.78 | 0.324 | 0.707 | 0.619 | 0.81 | 0.97
S fixed | 1.15 | 1.49 | 0.608 | 0.921 | 1.06 | 0.454 | 1.16 | 1.09 | 0.833 | 0.968
T fixed | 0.904 | 1.78 | 0.724 | 0.902 | 1.09 | 1.54 | 1.07 | 1.05 | 0.82 | 0.859
V fixed | 0.71 | 1.18 | 1.29 | 0.759 | 0.786 | 2.31 | 0.762 | 0.62 | 0.737 | 0.753
W fixed | 0.956 | 0.629 | 1.88 | 1.04 | 0.981 | 0.564 | 0.478 | 0.951 | 0.784 | 0.793
pThr fixed | 0.782 | 1.66 | 0.255 | 0.373 | 0.472 | 2.81 | 1.61 | 1.16 | 1.21 | 1.35
pTyr fixed | 1.22 | 1.85 | 0.494 | 0.629 | 0.643 | 0.876 | 1.17 | 1.55 | 1.41 | 1.4
